The results in this text go back to patent publication US20250376696A1.

The experiment has as its target SIRPα of non-obese diabetic (NOD) mice (mouse (NOD strain)) (UniProt O89094). The experiment is described as follows: cell-based or functional assay.
Chain of UniProt O89094 (O89094 168-257): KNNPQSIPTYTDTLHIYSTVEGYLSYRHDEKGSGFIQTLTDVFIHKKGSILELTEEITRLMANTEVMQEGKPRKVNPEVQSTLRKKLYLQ

In turn, “human CD47 on lentiviral vector (LV) particles (from UniProt Q08722 19-323) (receptor)” showed an LV copies in plasmacytoid dendritic cells (pDC), NOD versus C57BL/6 mice of more than 10 fold; an LV copies per cell (vector copy number, VCN) in sorted hepatocytes, NOD versus C57BL/6 mice of 4 fold; a VCN in liver macrophages, NOD versus C57BL/6 mice of 30 fold; a VCN in spleen, NOD versus C57BL/6 mice of 5 fold.
